The supplement of paper PMC12855868

B1: library; numbered along this chain (parent)
chain: MAAAGGARLLRAASAVLGGPAGRWLHHAGSRAGSSGLLRNRGPGGSAEASRSLSVSARARSSSEDKITVHFINRDGETLTTKGKVGDSLLDVVVENNLDIDGFGACEGTLACSTCHLIFEDHIYEKLDAITDEENDMLDLAYGLTDRSRLGCQICLTKSMDNMTVRVPETVADARQSIDVGKTS

Variants of: B1
Assay: scaled log2 fold change in cell abundance, elesclomol vs control (0 = silent mean, 1 = nonsense mean) (scaled log2 ratio); higher = higher viability under elesclomol (loss of FDX1 cuproptosis function)
Settings: glucose 10 mM
[1] = with ABC1 FDX1 KO, elesclomol 5 nM, 14 days
[2] = with HEK293T FDX1 KO, elesclomol 40 nM, 11 days
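Further: variant abundance is its share of total variant reads in each endpoint sample, from next-generation sequencing of the integrated ORF PCR-amplified out of genomic DNA.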

| Variant | scaled log2 fold change [1] | scaled log2 fold change [2] |
| --- | --- | --- |
| L110S | -0.279 | 1.18 |
| L110R | -0.0668 | 1.07 |
| L110I | -0.0941 | -0.421 |
| L110K | 0.374 | -0.159 |
| L110C | 0.439 | -1.38 |
| L110D | 0.955 | 0.687 |
| L110T | 0.401 | 0.383 |
| L110W | 0.568 | 0.351 |
| L110Q | -0.0207 | -0.0815 |
| L110F | 0.167 | 0.528 |
| L110H | 0.0622 | 0.156 |
| L110P | 0.33 | -0.14 |
| L110E | 0.704 | 0.547 |
| L110V | 0.108 | -0.578 |
| L110G | -1.14 | -0.656 |
| L110Y | 0.609 | 0.0828 |
| L110N | 0.111 | -0.0165 |
| L110M | 0.297 | 0.602 |
| L110A | 0.303 | -0.448 |
| C106V | 1.17 | 1.11 |
| C106W | 1.05 | 1.27 |
| C106Y | 1.17 | 1.2 |
| S113C | -0.028 | 0.699 |
| S113A | 0.165 | -0.251 |

| Variant | scaled log2 fold change [1] | scaled log2 fold change [2] |
| --- | --- | --- |
| E107P | 0.92 | 0.951 |
| E107I | 0.227 | 0.0716 |
| E107H | -0.0248 | 0.933 |
| E107M | -0.428 | -0.835 |
| E107A | 0.00703 | -0.202 |
| E107V | 0.145 | 0.849 |
| E107W | 0.121 | -0.686 |
| E107G | -0.152 | 0.114 |
| E107N | 0.0244 | -0.796 |
| E107K | -0.532 | 0.255 |
| E107L | -0.267 | -0.452 |
| E107T | -0.333 | 0.112 |
| E107R | -1.12 | 1.26 |
| E107C | 0.0589 | 0.444 |
| E107Q | -0.324 | -0.527 |
| E107F | -0.754 | -1.14 |
| E107Y | 0.333 | -0.16 |
| E107D | -0.195 | 0.683 |
| T109E | -0.14 |  |
| T109V | -0.651 |  |
| T109M | -0.267 | 1.01 |
| T109N | -0.076 | 0.456 |
| T109A | -0.1 | 0.103 |
| T109Y | -0.087 |  |

| Variant | scaled log2 fold change [1] | scaled log2 fold change [2] |
| --- | --- | --- |
| T109Q | -0.041 |  |
| T109P | 0.947 | 0.81 |
| T109L | -0.315 | 0.377 |
| T109D | -0.669 | 0.407 |
| T109F | -0.985 | -0.223 |
| T109G | 0.318 | 0.43 |
| T109H | -0.34 | -0.84 |
| T109I | -0.689 | -0.157 |
| T109K | -0.296 | -0.481 |
| T109S | -1.08 | -0.288 |
| T109R | -0.153 | 1.07 |
| T109W | -0.657 | 0.253 |
| T109C | -0.244 | -0.121 |
| C112T | 1.16 | 0.679 |
| C112V | 1.21 | 1.04 |
| C112D | 0.906 | 2.02 |
| C112F | 1.02 | 1.25 |
| C112M | 1.09 | 1.24 |
| C112E | 1.07 | 0.951 |
| C112G | 1.15 | 1.18 |
| C112R | 1.08 | 1.29 |
| C112Q | 1.01 | 1.1 |
| C112K | 1.12 | 1.35 |
| C112L | 0.979 | 1.26 |

| Variant | scaled log2 fold change [1] | scaled log2 fold change [2] |
| --- | --- | --- |
| C112H | 0.978 | 1.42 |
| C112S | 0.988 | 0.991 |
| C112N | 0.953 | 1.22 |
| C112I | 0.989 | 1.33 |
| C112P | 1.17 | 0.87 |
| C112Y | 1.09 | 1.3 |
| C112A | 1.16 | 1.03 |
| C112W | 1.17 | 0.573 |
| A111G | -0.0345 | 0.231 |
| A111K | -0.155 | 0.541 |
| A111P | 1.2 | 1.01 |
| A111F | -1.42 | 0.414 |
| A111V | -0.00247 | -0.469 |
| A111N | -0.0992 | 0.0245 |
| A111Y | -1.01 | 0.214 |
| A111I | -0.421 | -0.0909 |
| A111H | -0.198 |  |
| A111T | 0.105 | -0.0821 |
| A111Q | -0.0306 | -0.173 |
| A111R | -0.24 |  |
| A111L | 0.263 | 0.862 |
| A111D | -0.231 | 0.497 |
| A111C | -0.264 | 2.92 |
| A111S | 0.397 | -0.445 |

| Variant | scaled log2 fold change [1] | scaled log2 fold change [2] |
| --- | --- | --- |
| A111E | -0.193 | 1.05 |
| A111W | 0.0852 | 0.773 |
| A111M | -0.315 | 1.22 |
| G108H | 0.742 | 0.224 |
| G108L | 1.02 | 1.11 |
| G108V | 1.07 | 1.34 |
| G108K | 0.467 | 0.101 |
| G108Q | 0.767 | 0.807 |
| G108Y | 1 | 1.1 |
| G108N | 0.805 | 0.721 |
| G108C | 1.05 | 0.472 |
| G108R | 0.794 | -0.104 |
| G108E | 1.01 | 0.92 |
| G108T | 1.01 | 0.358 |
| G108A | 0.21 | 1.08 |
| G108S | 0.376 | 0.952 |
| G108I | 1.05 | 1.37 |
| G108M | 0.834 | 0.77 |
| G108F | 1.12 | 0.938 |
| G108D | 0.898 | 0.446 |
| G108W | 0.949 | 0.989 |
| G108P | 1.09 | 1.24 |
